Data on 4 substances can be found in publication PMC12093266, “Synergistic action of two radical SAM enzymes in the biosynthesis of thuricin CD, a two-component sactibiotic” (Chemical Science, 2025).

The target of experiment [1] is TrnD (Bacillus thuringiensis). The experiment is described as follows: MST; TrnD fluorescently labeled; TrnC R370A/K372A mutant as the other partner.
The target of experiment [2] is TrnC (Bacillus thuringiensis). The experiment is described as follows: MST; TrnC fluorescently labeled with RED-NHS; series of diluted TrnD (or TrnD(ΔRRE), or an equimolar mixture of TrnD with TrnA or TrnB) mixed with it in capillaries; Monolith instrument; aerobic conditions.
In experiment [3] the target is TrnC (Bacillus thuringiensis). The experiment is described as follows: pull-down; 6× His-tagged TrnC and non-tagged TrnD coexpressed in E. coli from a pRSFduet-1-derived construct; cell lysate purified on Ni-NTA; SDS-PAGE.

In general, Kd refers to the constant that tells how readily two partners part at equilibrium. As a reminder, the stoichiometry N is a count of units in the complex or per binding partner.

In experiment [1], TrnC R370A/K372A mutant (enzyme) yielded a Kd of 10.2 µM. With TrnD(ΔRRE) (enzyme), in experiment [2], the Kd came to 100 µM.

Take non-tagged TrnD (enzyme): the stoichiometry N in experiment [3] was 1. Regarding “equimolar mixture of TrnD and TrnA (complex)”, in experiment [2], the equilibrium dissociation constant (Kd) stood at 0.54 µM.
